Biological target: the molecule itself
Assay: cryo-EM structure

B1: Saccharomyces cerevisiae vacuolar transient receptor potential yeast 1 (TRPY1) channel, full length (natural protein, UniProt Q12324 1-675, looked up)
chain: MVSANGDLHLPISNEQCMPENNGSLGFEAPTPRQILRVTLNLKYLIDKVVPIVYDPNDIVCDHSEILSPKVVKLAYEACGGNPKDKANKRKYQSVIIFSLLKVCEWYSILATMEVHNAKLYETRNLASQQLCKLLIEREETRDLQFLFMQLLLRRYVINENDEDQEPLNALELATDMHCTTVIGSSGFQRCLKWIWRGWIVQNGLDPTTFIKDDSLAEVSLISHFNPVRLKAPVYQNYLQMIFSFLFLGLYTLVVNGKDSERVQSFDLLESIFYVFNTGFILDELTKLYYIGYAHLSFWNLFNDTTYLIITFAMGFRAMSVTPLNAKYSSEDWDKISYRVLSCAAPFVWSRLLLYLESQRFIGIMLVILKHMMKESIVFFFLLFLIMIGFTQGFLGLDSADGKRDITGPILGNLTITVLGLGSFDVFEEFAPPYAAILYYGYYFIVSVILLNILIALYSTAYQKVIDNADDEYMALMSQKTLRYIRAPDEDVYVSPLNLIEVFMTPIFRILPPKRAKDLSYTVMTIVYSPFLLLISVKETREARRIKYNRMKRLNDDANEYDTPWDLTDGYLDDDDGLFSDNRNSGMRATQLKNSRSLKLQRTAEQEDVHFKVPKKWYKNVKKCSPSFEQYDNDDTEDDAGEDKDEVKELTKKVENLTAVITDLLEKLDIKDKKE
stoichiometry N: 4
